Results on 1 molecule are retold here after publication PMC8894376 (Nature Communications, 2022).

The experiment addresses Recombinant full-length human α-synuclein (1–140) (human, UniProt P37840 1-140). In words: turbidity of phase separation (absorbance at 350 nm). As to conditions: both partners purified.

B1: PrP 23–144 (Y145Stop) (domain or fragment)
chain: KKRPKPGGWNTGGSRYPGQGSPGGNRYPPQGGGGWGQPHGGGWGQPHGGGWGQPHGGGWGQPHGGGWGQGGGTHSQWNKPSKPKTNMKHMAGAAAAGAVVGGLGGYMLGSAMSRPIIHFGSD
Take B1: the binding result is “binds”.
